The values that follow come from patent publication US7148006.

For the assay, the target named is wild type human PKR, full length (aa 1-551) (human) (UniProt P19525). As to the kind of experiment: cell-based or functional assay.
Chain of wild type human PKR, full length (aa 1-551) (human) (P19525 whole entry, the tested form may be a part): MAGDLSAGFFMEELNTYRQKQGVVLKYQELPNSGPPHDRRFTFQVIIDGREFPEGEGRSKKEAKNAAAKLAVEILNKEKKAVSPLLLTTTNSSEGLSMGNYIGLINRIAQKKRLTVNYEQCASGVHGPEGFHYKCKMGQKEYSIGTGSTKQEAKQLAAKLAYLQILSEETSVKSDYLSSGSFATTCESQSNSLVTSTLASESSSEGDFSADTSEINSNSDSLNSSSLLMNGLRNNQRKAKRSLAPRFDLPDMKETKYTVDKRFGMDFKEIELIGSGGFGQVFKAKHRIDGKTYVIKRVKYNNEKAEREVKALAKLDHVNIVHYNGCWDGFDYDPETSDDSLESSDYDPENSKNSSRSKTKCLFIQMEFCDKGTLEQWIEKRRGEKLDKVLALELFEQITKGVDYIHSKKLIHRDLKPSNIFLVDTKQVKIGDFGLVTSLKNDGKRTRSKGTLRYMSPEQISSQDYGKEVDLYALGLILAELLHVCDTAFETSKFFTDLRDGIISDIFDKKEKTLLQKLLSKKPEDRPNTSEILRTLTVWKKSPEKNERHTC

The substance “NS5A 1b-2 (untagged, expressed from pYES-NS5A 1b-2)” came in with a fold decrease in plating efficiency of yeast RY1-1 on galactose medium of 10 to 100 fold.
